Measurements published in article PMC8415449.

Biological target: MtrAB complex (Shewanella oneidensis MR-1)
Test: AUC; sedimentation equilibrium (SE-AUC), 20°C, 8,000, 10,000 and 12,000 rpm, absorbance at 410 nm; 50 mM sodium phosphate, 50 mM NaCl, 0.1% (v/v) Triton X-100, pH 7.5; 0.4 uM single proteins, 0.25 uM + 0.25 uM mixture; fits to a single non-interacting species

Ru-MtrC (soluble Y657C MtrC labelled at Cys657 with a Ru(II)-bipyridine dye) (from UniProt Q8EG34 26-671) (natural protein)
stoichiometry N (Ru-MtrC per MtrAB): 1
